Results published in article PMC10068899 (Cell Reports, 2023).
Blank lines part the entries; values can stand above or below the binder they belong to.

How the values were obtained:
[1] = biological target: human p110γ (catalytic subunit of PI3Kγ), co-expressed with mouse p84 or porcine p101 (human, UniProt P48736 1-1102); assay: SEC
[2] = biological target: porcine p110γ (for X-ray crystallography) (porcine, UniProt O02697 1-1102); assay: crystal structure
[3] = biological target: human p110γ, biGBac construct co-expressed with human p84 or human p101 (human, UniProt P48736 1-1102); assay: HDX-MS
Sequence of human p110γ, biGBac construct co-expressed with human p84 or human p101 (P48736 whole entry): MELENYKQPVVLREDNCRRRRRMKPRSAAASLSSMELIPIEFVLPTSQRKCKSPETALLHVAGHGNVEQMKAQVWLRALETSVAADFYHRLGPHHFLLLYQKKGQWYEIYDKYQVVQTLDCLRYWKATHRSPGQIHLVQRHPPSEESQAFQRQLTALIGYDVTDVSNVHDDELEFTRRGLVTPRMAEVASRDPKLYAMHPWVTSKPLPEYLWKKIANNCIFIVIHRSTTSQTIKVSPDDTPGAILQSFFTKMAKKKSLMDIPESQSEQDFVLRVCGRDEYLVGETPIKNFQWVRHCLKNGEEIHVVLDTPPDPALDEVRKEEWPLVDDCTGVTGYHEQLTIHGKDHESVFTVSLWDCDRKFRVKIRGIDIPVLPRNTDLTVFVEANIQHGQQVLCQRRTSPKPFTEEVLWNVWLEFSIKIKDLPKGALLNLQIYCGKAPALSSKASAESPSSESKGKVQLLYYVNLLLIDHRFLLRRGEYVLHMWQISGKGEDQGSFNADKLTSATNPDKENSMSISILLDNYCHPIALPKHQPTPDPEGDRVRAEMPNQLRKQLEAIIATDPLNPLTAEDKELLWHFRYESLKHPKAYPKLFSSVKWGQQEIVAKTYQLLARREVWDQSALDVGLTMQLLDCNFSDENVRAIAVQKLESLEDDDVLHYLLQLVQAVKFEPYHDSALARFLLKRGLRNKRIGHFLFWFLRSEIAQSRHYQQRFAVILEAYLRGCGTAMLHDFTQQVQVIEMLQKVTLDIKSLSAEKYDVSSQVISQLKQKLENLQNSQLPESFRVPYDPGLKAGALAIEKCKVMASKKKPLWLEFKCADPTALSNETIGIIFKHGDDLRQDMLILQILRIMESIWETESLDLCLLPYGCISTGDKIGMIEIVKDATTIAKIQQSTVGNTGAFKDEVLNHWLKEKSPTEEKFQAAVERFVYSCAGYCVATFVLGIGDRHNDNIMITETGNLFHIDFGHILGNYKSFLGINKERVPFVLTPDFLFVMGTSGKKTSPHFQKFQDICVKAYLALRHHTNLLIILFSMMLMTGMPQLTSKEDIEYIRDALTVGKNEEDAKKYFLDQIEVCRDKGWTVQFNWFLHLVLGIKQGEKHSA

Sequence of human p110γ (catalytic subunit of PI3Kγ), co-expressed with mouse p84 or porcine p101 (P48736 whole entry): as above
Sequence of porcine p110γ (for X-ray crystallography) (O02697 whole entry): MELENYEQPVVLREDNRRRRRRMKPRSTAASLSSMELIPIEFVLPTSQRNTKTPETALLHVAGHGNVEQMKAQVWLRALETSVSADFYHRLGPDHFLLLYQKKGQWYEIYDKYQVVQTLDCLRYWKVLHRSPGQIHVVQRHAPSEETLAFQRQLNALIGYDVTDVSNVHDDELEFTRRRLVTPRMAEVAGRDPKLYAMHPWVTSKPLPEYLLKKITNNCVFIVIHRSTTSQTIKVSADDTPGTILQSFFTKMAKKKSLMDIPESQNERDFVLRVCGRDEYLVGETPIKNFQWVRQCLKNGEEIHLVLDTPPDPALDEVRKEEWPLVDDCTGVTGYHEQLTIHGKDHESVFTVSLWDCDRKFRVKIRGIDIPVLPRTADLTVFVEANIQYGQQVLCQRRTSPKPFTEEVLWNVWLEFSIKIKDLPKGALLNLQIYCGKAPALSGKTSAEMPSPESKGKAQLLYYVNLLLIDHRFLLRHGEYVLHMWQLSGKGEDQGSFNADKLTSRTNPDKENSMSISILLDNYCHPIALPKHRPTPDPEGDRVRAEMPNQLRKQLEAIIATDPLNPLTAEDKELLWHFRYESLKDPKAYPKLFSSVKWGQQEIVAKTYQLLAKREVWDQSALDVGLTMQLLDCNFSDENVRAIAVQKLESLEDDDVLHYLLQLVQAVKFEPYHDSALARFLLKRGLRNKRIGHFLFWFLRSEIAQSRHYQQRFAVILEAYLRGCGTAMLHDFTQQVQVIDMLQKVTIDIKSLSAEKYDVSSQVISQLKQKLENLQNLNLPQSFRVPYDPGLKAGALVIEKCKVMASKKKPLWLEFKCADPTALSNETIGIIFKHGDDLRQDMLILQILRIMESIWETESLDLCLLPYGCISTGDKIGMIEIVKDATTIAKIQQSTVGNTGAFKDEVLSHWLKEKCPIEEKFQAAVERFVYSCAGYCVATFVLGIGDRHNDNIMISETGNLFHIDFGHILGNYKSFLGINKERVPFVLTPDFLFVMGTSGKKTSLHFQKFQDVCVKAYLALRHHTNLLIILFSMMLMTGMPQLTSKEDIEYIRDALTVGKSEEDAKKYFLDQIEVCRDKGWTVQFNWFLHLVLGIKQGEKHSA

B1: mouse p84 (regulatory subunit of PI3Kγ), co-expressed with human p110γ (natural protein)
chain: MESSDVELDFQRSVQAVLRELNTPNPALQSNQGMWRWSLHKKVERNPGKSSILVRILLRELEKAESEDGRRVIIPLLLTLMSVLTKATGIPEDLYHRAYTFCTRLLTLPAPYSTVALDCAIRLKTETAVPGTLYQRTVIAEQNLISELYPYQERVFLFVDPELVSASVCSALLLEIQAAQEQQTPEACMRHVVSHALQAALGEACHTGALNRKLQASSRRVLEYYFHAVVAAIEQVASEDSPSRLGHLEKMEEIYCSLLGPATTRRHCVGDLLQDRLPSIPLPSPYITFHLWTDQEQLWKELVLFLRPRSQLRLSADLDALDLQGFRLDRDLARVSTDSGIERDLPLGSDELPDPSSSEMERAALQRKGGIKKRVWPPDFFMPGSWDGPPGLHRRTGRPSGDGELLPGVSRVHTARVLVLGDDRMLGRLAQAYYRLRKRETKKFCLTPRLSLQLYYIPVLAPQVTGQDPEASRKPELGELASFLGRVDPWYESTVNTLCPAILKLAEMPPYLDTSRTVDPFILDVITYYVRMGTQPIYFQLYKVKIFTSLSHDPTEDIFLTELKVKIQDSKSPKEGSSPRRRGAAEGTGAELSMCYQKALLSHRPREVTVSLRATGLVLKAIPAGDTEVSGFFHCTSPNAASATDCSCLHVSVTEVVKSSNLAGRSFTTSTNTFRTSSIQVQSQDQRLLTLWLDKDGRRTFRDVVRFEVSPCPEPCSRTQKSKTSALNSHGQETEKNMAKPNSLLMPINTFSGIIQ
binding result [1]: binds

B2: EE-tagged mouse p84 (for X-ray crystallography) (natural protein)
chain: B1 chain
binding result [2]: binds

B3: human p84 (regulatory subunit of PI3Kγ), co-expressed with human p110γ (natural protein)
chain: MESSDVELDLQRSVQAVLRELSTQAPALQSNQGMWRWSLHKKVERDPGKSPVLVRILLRELEKAESQDLRHVIIPLLHTVMYVLTKATGITEELYQRIYAFCTRLLTLPTPYCTVALDCAIRLKTEMAVPGTLYQRMVIAEQNLTNELYPYQERVFLFVDPELVSASVCSALLLEIEAAQAQQTPETCMRHVVSHALQAALGEACHAGALHRKLQASPRRTLEHYFHAVVAALEQMASEASPSREGHVERLEEIYCSLLGPAAGRCGGDLVQERPPSIPLPSPYITFHLWTGEEQLWKELVLFLRPRSQLRLSADLEVLDLQGLRPDRELARVSVLSTDSGIERDLPTGADELPAPGSPEMERAGLQRKGGIKKRAWPLDFLMPGSWDGPPGLHRRTGRPSGDGEMLPGVSRLHTARVLVLGDDRMLGRLAQAYHRLRKRETQKFCLTPRLSLQLYYIPVLAPEKPAASRQPELGELATFLGRVDPWYQSNVNTLCPAIHKLAEMPPSLDTSRTVDPFILDVITYYIRMGTQPIYFQIYTVKIFFSDLSQDPTEDIFLIELKVKIQDSKFPKDGFSPRRRGVAEGPGAELSLCYQKALLSHRPREVTVSLRATGLILKAIPASDTEVSGSSHCPLPAAPVTDHTCLNVNVTEVVKSSNLAGKSFSTVTNTFRTNNIQIQSRDQRLLTLSLDKDDQRTFRDVVRFEVAPCPEPCSGAQKSKAPWLNLHGQQEVEAIKAKPKPLLMPINTFSGIVQ
binding result [3]: binds

More lines, now with the values ahead:

binding result [1]: binds
B4: porcine p101 (regulatory subunit of PI3Kγ), co-expressed with human p110γ (natural protein)
chain: MQPGATTCTEDRIQHALERCLHGLSLSRRSTSWSAGLCLNCWSLQELVSRDPGHFLILLEQILQKTREVQEKGTYDLLAPLALLFYSTVLCTPHFPPDSDLLLKAARTYHRFLTWPVPYCSICQELLTFIDAELKAPGISYQRLVRAEQGLSTRSHRSSTVTVLLLNPVEVQAEFLDVADKLSTPGPSPHSAYITLLLHAFQATFGAHCDLSGLHRRLQSKTLAELEAIFTETAEAQELASGIGDAAEARQWLRTKLQAVGEKAGFPGVLDTAKPGKLRTIPIPVARCYTYSWNQDSFDILQEILLKEQELLQPEILDDEEDEDEEDEEEDLDADGHCAERDSVLSTGSAASHASTLSLASSQASGPTLSRQLLTSFVSGLSDGVDSGYMEDIEESAYERPRRPGGHERRGHRRPGQKFNRIYKLFKSTSQMVLRRDSRSLEGSPDSGPPLRRAGSLCSPLDSPTLPPSRAQGSRSLPQPKLSPQLPGWLLAPASRHQRRRPFLSGDEDPKASTLRVVVFGSDRISGKVVRAYSNLRRLENNRPLLTRFFKLQFFYVPVKRSRGTGTPTSPAPRSQTPPLPTDAPRHPGPAELGAAPWEESTNDISHYLGMLDPWYERNVLGLMHLPPEVLCQSLKAEPRPLEGSPAQLPILADMLLYYCRFAARPVLLQVYQTELTFITGEKTTEIFIHSLELGHSAATRAIKASGPGSKRLGIDGDREAVPLTLQIIYSKGAISGRSRWSNMEKLCTSVNLSKACRQQEELDSSTEALTLNLTEVVKRQTPKSKKGFNQISTSQIKVDKVQIIGSNSCPFAVCLDQDERKILQSVIRCEVSPCYKPEKSSLCPPPQRPSYPPAPATPDLCSLLCLPIMTFSGALP

binding result [3]: binds
B5: human p101 (regulatory subunit of PI3Kγ), co-expressed with human p110γ (natural protein)
chain: MQPGATTCTEDRIQHALERCLHGLSLSRRSTSWSAGLCLNCWSLQELVSRDPGHFLILLEQILQKTREVQEKGTYDLLTPLALLFYSTVLCTPHFPPDSDLLLKAASTYHRFLTWPVPYCSICQELLTFIDAELKAPGISYQRLVRAEQGLPIRSHRSSTVTVLLLNPVEVQAEFLAVANKLSTPGHSPHSAYTTLLLHAFQATFGAHCDVPGLHCRLQAKTLAELEDIFTETAEAQELASGIGDAAEARRWLRTKLQAVGEKAGFPGVLDTAKPGKLHTIPIPVARCYTYSWSQDSFDILQEILLKEQELLQPGILGDDEEEEEEEEEVEEDLETDGHCAERDSLLSTSSLASHDSTLSLASSQASGPALSRHLLTSFVSGLSDGMDSGYVEDSEESSSEWPWRRGSQERRGHRRPGQKFIRIYKLFKSTSQLVLRRDSRSLEGSSDTALPLRRAGSLCSPLDEPVSPPSRAQRSRSLPQPKLGTQLPSWLLAPASRPQRRRPFLSGDEDPKASTLRVVVFGSDRISGKVARAYSNLRRLENNRPLLTRFFKLQFFYVPVKRSHGTSPGACPPPRSQTPSPPTDSPRHASPGELGTTPWEESTNDISHYLGMLDPWYERNVLGLMHLPPEVLCQQSLKAEAQALEGSPTQLPILADMLLYYCRFAARPVLLQVYQTELTFITGEKTTEIFIHSLELGHSAATRAIKASGPGSKRLGIDGDREAVPLTLQIIYSKGAISGRSRWSNLEKVCTSVNLNKACRKQEELDSSMEALTLNLTEVVKRQNSKSKKGFNQISTSQIKVDKVQIIGSNSCPFAVCLDQDERKILQSVVRCEVSPCYKPEKSDLSSPPQTPPDLPAQAAPDLCSLLCLPIMTFSGALP
